We go through 2 molecules from patent publication CN1948343A (BEIJING ANBOTE GENE ENGINEERIN, dated 2007).

Usually IC50 stands for the point on the concentration scale where inhibition reaches its midpoint. Low readings indicate greater potency in that assay, high ones weaker potency in that assay.

For experiment [1], the target named is T1, 重组人TNF-α (human, UniProt P01375 77-233). In words: cell-based or functional assay.
Experiment [2] addresses T1, 重组人TNF-α. The experiment can be described thus: competition ELISA: inhibition of binding of 1 μg/ml TNF-α to coated L929 TNF receptor extract. (In an ELISA, binding on a coated surface is turned into a signal by an enzyme label.)

T1 sequence (P01375 77-233 limits assumed): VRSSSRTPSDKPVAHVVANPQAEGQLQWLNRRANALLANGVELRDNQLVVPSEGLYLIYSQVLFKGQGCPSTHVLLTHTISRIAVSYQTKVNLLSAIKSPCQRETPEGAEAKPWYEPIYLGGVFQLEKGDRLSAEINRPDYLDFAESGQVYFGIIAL

B1: 抗TNF-α鼠源单链抗体 TNF-scFv (scFv, part only; not given: C-terminal tail of construct, part only)
scFv, part: QIQLVQSGPELKKPGETVKISCKASGYTFTHYGMNWVKQAPGKGLKWMGWINTYTGEPTYADDFKEHFAFSLETSASTVFLQINNLKNEDTATYFCARERGDAMDYWGQGTSVTVSSTSGGGGSGGGGSGGGGSSRSIVMTQTPKFLLVSAGDRVTITCTASQSVSNDVVWYQQKPGQSPKMLMYSAFNRYTGVPDRFTGRGYGTDFTFTISSVQAEDLAVYFCQQDYNSPRTFGGGTKLEIK
B1 gave an MTT法: 抑制TNF-α对L929细胞的细胞毒作用, 50%抑制的浓度(IC50) in the experiment with 重组人TNF-α [1] of 40 nM. For the same molecule, the 50% inhibitory concentration (IC50) with 重组人TNF-α [2] stood at 3200 nM.

B2: 抗TNF-α基因工程四价单链抗体 TNF-TeAb (scFv)
chain: B1 scFv, part
Regarding B2, in the experiment with 重组人TNF-α [1], the “MTT法: 抑制TNF-α对L929细胞的细胞毒作用, 50%的抑制浓度(IC50)” value was found to be 2.5 nM. This molecule also had an IC50 in the experiment with 重组人TNF-α [2] of around 400 nM.
